“Also recorded” adds a separate entry of the source. [ ]: non-standard residue; d: D form. The star is where a group is joined. Biotin = O=C1N[C@H]2[C@H](CS[C@H]2CCCCC(=O)*)N1; NHPr = CCCN*

A short description of series [1]: Macro-scale scaffold formation upon exposure to PBS / neutral pH buffer. In kind it is physicochemical. The following applies: upon exposure to PBS (1×) / neutral pH buffer. From the text:
The tested peptides solutions appearance ranged from peptides giving clear liquid is solutions (e.g. 4, B15, B19, B25, B28, 30) to samples which become opaque in 1 to 7 days after dissolution (e.g. B3, B17, B22, B24, B27, 31) as shown in FIG. 2a (I). Most of the liquid solutions increased in viscosity over the first week after dissolution, however after ten days in water no appreciable changes happened at the macroscale.
(§1) Nonetheless, keeping constant the observation time, the storage moduli of peptide solutions previously dissolved (the day before) at 3% w/v were measured. Measurements were obtained of these peptide solutions, further diluted to 1% w/v at the same day of the experiment (unless otherwise specified), and, after addition of PBS, of the formed scaffolds.

Series [2] can be described thus: Self-healing tests of assembled scaffolds after mechanical rupture. It counts as physicochemical. The settings on record: recovery of scaffold stiffness after mechanical rupture. How it is done: (§2) Rheological properties were determined for the peptides of the invention, using a controlled stress TA Instruments AR-2000ex rheometer (TAInstruments). A cone-and-plate geometry (acrylic cone diameter, 20 mm; angle, 1°; truncation gap 34 μm) was used. All measurements were obtained at a constant monitored temperature of 25° C. Preliminary strain sweeps were performed for each sample to define the linear viscoelastic region, thus ensuring that moduli were independent of strain. Time sweeps, after addition of PBS (1×) were recorded at constant angular frequency (ω=1 Hz). Frequency sweeps, both for peptide water solutions and for self-assembled scaffolds, were performed with the instrument in oscillatory mode at controlled strain of 1%. Final: onset point of rupture was calculated by linear interpolation and subsequent determination of the intersection of the G′ modes in the linear region and at material rupture respectively. G′ values were averaged in the 1-100 Hz region and between n=3 independent replicates. During self-healing tests the self-assembled scaffold was torn by applying a strain sweep (0.01%-1000% strain range) at 1 Hz oscillatory frequency. G′ values were is recorded in frequency sweep mode (at 1% strain) or, in time sweep mode (at 1 Hz and at 1% strain), before and after the strain sweep step, subsequent observations were performed every half hour or, in case of time sweep test, every 30 seconds. In all of the SAPs the difference between the storage moduli measured before and after PBS addition spanned from two to four orders of magnitude, proving the dramatic biomechanical changes taking place during scaffold gelation. Peptide B3 (1%) yielded a solid stiff scaffold (G′=2917 Pa), supporting the idea that ionic charges may screen the electrostatic repulsions given by positively charged lysine residues and speed up the spontaneous ongoing self-assembling process, on its turn giving an already viscous (G′=67 Pa) and opaque solution at day 1. Among the peptides giving soft scaffold (100 Pa-1000 Pa range) peptides 4, B19, B25, B28 and 30 were included. On the opposite side, SAPs yielding solid stiff scaffolds are B15, B22, B24, B27 and 31 (5000 Pa-9000 Pa range).
Solid scaffolds were obtained via addition of PBS (1×) in a cone-and-plate rheometer; we measured the storage modulus, the samples were subjected to a strain sweep (0.01% to 1000%) until and far beyond rupture occurred (i.e. is monitoring the sudden drop of G′ value). Samples were then left in place (keeping them hydrated with PBS) and their G′ were measured every 30 minutes via frequency sweep tests in the range of 0.1 Hz to 60 Hz. As a negative control KLD-12, a well-known SAP, was tested (4, 6). […] In FIG. 6b peptide B25 (3% w/v concentration) was assessed for self-healing in a time sweep mode, every 30 seconds, at 1 Hz and at 1% strain. Values of G′ recovered after 100 minutes (1000 Pa) and steadily plateaued over time. For peptides B3, B22, B25 and B27 full recovery was obtained at different time intervals after rupture, ranging from 60′ to 240′. Similar results were confirmed by multiple independent experiments, but at different time ranges, for all of the self-assembling peptides except for B19 and B28.
Samples were checked for rupture by tilting. After a maximum of four hours all of the samples returned to their solidified gel appearance. This healing could be repeated at will.

Series [3] concerns human Neural Stem Cells (hNSCs). In words: CellTiter 96 Aqueous Proliferation Assay of hNSCs on self-assembled scaffolds. It counts as cell-based. The following applies: 7 DIV, n=6, versus negative control (plastic). As to the method: Neural precursor cultures are established and expanded as previously described (15, 16). Human neural stem cells (NSCs) were isolated from the central nervous system, in particular from the diencephalon and the cerebral cortex of human brain 10.5 weeks from conception. The modalities for obtaining the primary tissue are in agreement with the guidelines of the European Network for Transplantation (NECTAR).
(§3) In vitro tests were performed following a previously adopted methodology (5). Briefly, cells (at a concentration of 6×10^4 cells/cm^2) were seeded on the top-surface of each assembled scaffold previously assembled into 96 multiwells. Initially, cells were cultured with basal medium supplemented with βFGF (10 ng/ml), added to enhance neuronal progeny differentiation. At 3 days in vitro (DIV), βFGF medium was replaced with Leukemia Inhibitory Factor (LIF, Chemicon) (20 ng/ml) and Brain Derived Neurotrophic Factor (BDNF, Peprotech) (20 ng/ml). Fresh medium was added every three days. Positive and negative controls consisted of CULTREX-BME® substrate (R&D systems) (1:100 dilution in basal medium) and untreated bottom well surfaces respectively.
Cell viability was quantified via […] 96® Aqueous Proliferation Assay (Promega, Madison, Wis.) at 7 DIV as recommended in the Promega protocol. After calibrating the linear response between the cell number and absorbance values, proliferated cell populations were quantified (n=6) by using a Vmax microplate reader (Molecular Devices, Sunnyvale, Calif.) at 490 nm wavelength. Values, reported as means±standard error of the mean, were blanked to their respective controls consisting of same substrates and cell culture media without cells.
(§4) To assess the potential of the proposed SAPs for cell cultures and, more generally, for regenerative medicine, a two-dimensional cell culture protocol already developed for RADA16-I-like peptides was adapted (5). Briefly, human Neural Stem Cells (hNSCs), mechanically dissociated 1 day before plating, were seeded and cultured for one week in vitro over self-assembled scaffolds of B3, 4, B15, B17, B19, B22, B24, B25, B27, B28, 30, 31 and over non-coated tissue culture plastic wells (negative control).

Series [4] has the same test system. The series is described as follows: Phase contrast imaging of hNSC morphology on scaffolds. It counts as cell-based. The following applies: 7 days in vitro. As to the method:
as §3, §4

A short description of series [5]: Rheological tests (storage modulus G′, cone-and-plate rheometer). In kind it is physicochemical. The settings on record: for storage modulus G′ of assembled scaffold (G′ post-assembling): after PBS (1×) addition, averaged in 1-100 Hz range, 25° C., B3 at 1%. As to the method:
as §2
The mechanical properties of the synthesized peptides were tested with a cone-and-plate rheometer. Firstly, the G′ dependence of peptide water solutions on concentration increments, and consequently aggregation kinetics, was assessed as shown in FIG. 2b.
as §1

A short description of series [6]: Solubility and behaviour on dissolution in water. It counts as physicochemical. From the text: All of the synthesized peptides are soluble at 1% w/v concentration in distilled water and in acid (0.1 M HCl) solutions.

“Ac-WGGGAFSSTKT-CONH2 (Ac-WGGGAFSSTKT-NH2) [peptide 31]”: the “solid scaffold / hydrogel formation” value in series [1] was “yielded solid scaffolds”. For the same substance, the self-healing property result in series [2] is given as “self-healing property has been seen”. Further, in series [3], the “living cell population / hNSC viability (CellTiter assay)” value (shortened to “living cell population / hNSC viability”) is recorded as “comparable to the biotinilated peptides”. The “cell morphology / degree of spreading” value in series [4] is “branched cells”.

Take “Ac-WGGGPFSSTKT-CONH2 (Ac-WGGGPFSSTKT-NH2) [peptide 4]”: in series [1], the “solid scaffold / hydrogel formation” value is recorded as “yielded solid scaffolds”. For the same substance, the self-healing property result in series [2] is “self-healing property has been seen”. Further, the “living cell population / hNSC viability” value in series [3] is given as “comparable to the biotinilated peptides”.

For “Biot-GGG(Propylamine)FSSTKT-CONH2 (Biotin-GGG[NHPr]FSSTKT-NH2) [peptide B28]”, the “solid scaffold / hydrogel formation” value in series [1] is recorded as “yielded solid scaffolds”. In addition, the “living cell population / hNSC viability” value in series [3] is on record as “cell population comparable to those of the other peptides”. For the same substance, in series [5], the “minimum necessary peptide concentration for gelation” value was determined as 3 % w/v. Further, in series [4], the “cell morphology / degree of spreading” value is given as “proliferated cell clusters”.

In the case of “Biot-GGGAFSSTKT-CONH2 (Biotin-GGGAFSSTKT-NH2; SMILES C[C@H](NC(=O)CNC(=O)CNC(=O)CNC(=O)CCCC[C@@H]1SC[C@@H]2NC(=O)N[C@@H]21)C(=O)N[C@@H](Cc1ccccc1)C(=O)N[C@@H](CO)C(=O)N[C@@H](CO)C(=O)N[C@H](C(=O)N[C@@H](CCCCN)C(=O)N[C@H](C(N)=O)[C@@H](C)O)[C@@H](C)O) [B15]”, the “solid scaffold / hydrogel formation” value in series [1] is reported as “yielded solid scaffolds”. Moreover, the self-healing property entry in series [2] is “self-healing property has been seen”. For the same substance, the “living cell population / hNSC viability” value in series [3] is reported as “biggest living cell populations, significantly different from negative control”. Further, in series [5], the “storage modulus G′ of assembled scaffold (G′ post-assembling)” value is reported as 8500 Pa. Also, the “cell morphology / degree of spreading” value in series [4] is recorded as “branched cells”.

On to “Biot-GGGAFSSTKTGRGD-CONH2 (Biotin-GGGAFSSTKTGRGD-NH2; SMILES C[C@H](NC(=O)CNC(=O)CNC(=O)CNC(=O)CCCC[C@@H]1SC[C@@H]2NC(=O)N[C@@H]21)C(=O)N[C@@H](Cc1ccccc1)C(=O)N[C@@H](CO)C(=O)N[C@@H](CO)C(=O)N[C@H](C(=O)N[C@@H](CCCCN)C(=O)N[C@H](C(=O)NCC(=O)N[C@@H](CCCNC(=N)N)C(=O)NCC(=O)N[C@@H](CC(=O)O)C(N)=O)[C@@H](C)O)[C@@H](C)O) [B19]”, for which, in series [1], the “solid scaffold / hydrogel formation” value is “yielded solid scaffolds”. The “living cell population / hNSC viability” value in series [3] is recorded as “significantly different from negative control”.

In the case of “Biot-GGGPFSSTDT-CONH2 (Biotin-GGGPFSSTDT-NH2; SMILES C[C@@H](O)[C@H](NC(=O)[C@H](CC(=O)O)NC(=O)[C@@H](NC(=O)[C@H](CO)NC(=O)[C@H](CO)NC(=O)[C@H](Cc1ccccc1)NC(=O)[C@@H]1CCCN1C(=O)CNC(=O)CNC(=O)CNC(=O)CCCC[C@@H]1SC[C@@H]2NC(=O)N[C@@H]21)[C@@H](C)O)C(N)=O) [B10]”, in series [6], the self-assembling on dissolution result is “immediately self-assembling with dissolution in water”.

“Biot-GGGPFSSTET-CONH2 (Biotin-GGGPFSSTET-NH2; SMILES C[C@@H](O)[C@H](NC(=O)[C@H](CCC(=O)O)NC(=O)[C@@H](NC(=O)[C@H](CO)NC(=O)[C@H](CO)NC(=O)[C@H](Cc1ccccc1)NC(=O)[C@@H]1CCCN1C(=O)CNC(=O)CNC(=O)CNC(=O)CCCC[C@@H]1SC[C@@H]2NC(=O)N[C@@H]21)[C@@H](C)O)C(N)=O) [B12]”: in series [6], the self-assembling on dissolution result is listed as “immediately self-assembling with dissolution in water”.

As for “Biot-GGGPFSSTKT-CONH2 (Biotin-GGGPFSSTKT-NH2; SMILES C[C@@H](O)[C@H](NC(=O)[C@H](CCCCN)NC(=O)[C@@H](NC(=O)[C@H](CO)NC(=O)[C@H](CO)NC(=O)[C@H](Cc1ccccc1)NC(=O)[C@@H]1CCCN1C(=O)CNC(=O)CNC(=O)CNC(=O)CCCC[C@@H]1SC[C@@H]2NC(=O)N[C@@H]21)[C@@H](C)O)C(N)=O) [peptide B3]”, in series [1], the “solid scaffold / hydrogel formation” value is “shifting to solid scaffold when exposed to neutral pH buffer; also recorded: yielded solid scaffolds”. Further, the self-healing property entry in series [2] was “self-healing property has been seen”. For the same substance, in series [5], the “storage modulus G′ of assembled scaffold (G′ post-assembling)” value worked out at 2917 Pa. For the same substance, the “time for G′ of peptide solution to reach a plateau” value in series [5] (dissolved at 3% concentration in water) stood at 2 days. For the same substance, the “storage modulus G′ of peptide solution (pre-assembling)” value in series [5] (water solution at day 1, 1%, before PBS) is given as 67 Pa. For the same substance, in series [4], the “cell morphology / degree of spreading” value was “branched cells”.

On to “Biot-GGGPFSSTNT-CONH2 (Biotin-GGGPFSSTNT-NH2; SMILES C[C@@H](O)[C@H](NC(=O)[C@H](CC(N)=O)NC(=O)[C@@H](NC(=O)[C@H](CO)NC(=O)[C@H](CO)NC(=O)[C@H](Cc1ccccc1)NC(=O)[C@@H]1CCCN1C(=O)CNC(=O)CNC(=O)CNC(=O)CCCC[C@@H]1SC[C@@H]2NC(=O)N[C@@H]21)[C@@H](C)O)C(N)=O) [B11]”, for which, in series [6], the self-assembling on dissolution entry is listed as “immediately self-assembling with dissolution in water”.

Turning to “Biot-GGGPFSSTQT-CONH2 (Biotin-GGGPFSSTQT-NH2; SMILES C[C@@H](O)[C@H](NC(=O)[C@H](CCC(N)=O)NC(=O)[C@@H](NC(=O)[C@H](CO)NC(=O)[C@H](CO)NC(=O)[C@H](Cc1ccccc1)NC(=O)[C@@H]1CCCN1C(=O)CNC(=O)CNC(=O)CNC(=O)CCCC[C@@H]1SC[C@@H]2NC(=O)N[C@@H]21)[C@@H](C)O)C(N)=O) [B13]”, the self-assembling on dissolution entry in series [6] is “immediately self-assembling with dissolution in water”.

The record behind these values is patent publication US8722850B2, “Self-assembling peptides and their use in the formation of hydrogels” (Universita' Degli Studi di Milano Bicocca, priority 2010, dated 2014).
